In US20240141039A1 (AGENUS, published 2024):
Blank lines part the entries; values can stand above or below the binder they belong to.

How the values were obtained:
[1] = target: T1, full-length ECD of cynomolgus monkey TIGIT (His-tagged) (cynomolgus monkey); experiment: SPR Biacore T200, Protein A capture, 1:1 model, experiment #2
T1 construct: also called His-tagged cynomolgus monkey TIGIT; cyno TIGIT extracellular domain
Experimental: (§1) Briefly, surface plasmon resonance experiments were performed using a Biacore T200 instrument, and the association rate (kₐ), dissociation rate (kd), and dissociation constant (KD) were calculated from each experiment using a 1:1 binding model with Biacore T200 Evaluation Software.
(§2) Multispecific molecules were captured using a 30-sec injection at a flow rate of 10 μl/min to reach about 350 resonance units (RUs). […] The sensor chip was regenerated between cycles with two 30-sec injections of 10 mM glycine, pH 1.5. Sensorgrams were evaluated and fit to a simple Langmuir 1:1 interaction model using the global data analysis option of BIAevaluation 3.0 software. Data quality was verified by visually inspecting deviations and curve fitting, and by evaluating the parameters of Rₘₐₓ, Chi2, and Tc.

[2] = target: T2, full-length isoform 2 ECD of human CD96 with a C89S mutation (His-tagged) (human, UniProt P40200 22-519); experiment: as above
T2 construct: also called His-tagged isoform 2 of human CD96 with a C89S mutation; human CD96 extracellular domain isoform 2 C89S
T2 sequence: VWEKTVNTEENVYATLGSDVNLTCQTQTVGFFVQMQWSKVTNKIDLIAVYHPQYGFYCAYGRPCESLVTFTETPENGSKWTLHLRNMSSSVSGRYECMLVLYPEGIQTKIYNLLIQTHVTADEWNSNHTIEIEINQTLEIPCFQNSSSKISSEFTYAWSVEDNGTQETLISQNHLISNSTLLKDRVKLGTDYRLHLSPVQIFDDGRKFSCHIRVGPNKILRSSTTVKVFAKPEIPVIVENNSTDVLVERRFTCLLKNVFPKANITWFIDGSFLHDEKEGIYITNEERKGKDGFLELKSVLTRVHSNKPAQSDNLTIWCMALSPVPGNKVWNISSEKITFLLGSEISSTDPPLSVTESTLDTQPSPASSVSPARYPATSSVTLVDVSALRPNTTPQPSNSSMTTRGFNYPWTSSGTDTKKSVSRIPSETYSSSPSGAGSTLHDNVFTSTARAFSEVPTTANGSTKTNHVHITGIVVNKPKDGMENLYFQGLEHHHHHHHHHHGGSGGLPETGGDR
Experimental: as §1, §2

[3] = target: T3, wild type full-length human CD96 isoform 1 expressed on CHO cells (human, UniProt P40200 22-585); experiment: flow cytometry, human CD96 (isoform 1) CHO cells, 1 experiment
T3 construct: whole, on cells; also called human CD96-CHO (isoform 1)
T3 sequence (looked up): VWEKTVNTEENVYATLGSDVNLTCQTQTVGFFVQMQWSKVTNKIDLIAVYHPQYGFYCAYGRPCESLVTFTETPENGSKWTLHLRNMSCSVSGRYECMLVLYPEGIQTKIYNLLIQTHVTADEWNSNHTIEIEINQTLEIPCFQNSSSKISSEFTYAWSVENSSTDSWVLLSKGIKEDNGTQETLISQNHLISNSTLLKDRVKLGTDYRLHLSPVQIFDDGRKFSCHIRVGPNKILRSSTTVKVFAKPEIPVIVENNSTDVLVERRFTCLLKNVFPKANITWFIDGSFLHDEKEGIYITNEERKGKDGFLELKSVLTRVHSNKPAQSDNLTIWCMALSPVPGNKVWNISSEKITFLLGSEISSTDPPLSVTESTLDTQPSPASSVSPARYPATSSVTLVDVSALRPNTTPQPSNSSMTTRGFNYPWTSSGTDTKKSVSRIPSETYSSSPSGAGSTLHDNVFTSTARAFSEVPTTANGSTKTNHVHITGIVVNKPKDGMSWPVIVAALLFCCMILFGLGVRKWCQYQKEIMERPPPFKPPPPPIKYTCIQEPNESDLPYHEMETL
Experimental: (§3) For the antibody binding assay, a frozen aliquot of human CD96-CHO cells (isoform 1 or isoform 2) was thawed at 37° C. and then transferred to a tube containing DPBS supplemented with 0.5% Bovine Serum Albumin and 0.05% Sodium Azide (FACS Buffer). Cells were centrifuged at 300 g for five minutes. The supernatant was discarded, and cells resuspended in FACS buffer were seeded in a 96-well U-bottom tissue culture plate at a density of 2×10⁵ cells per well in 50 μL. In a separate microplate, a 2× concentrated intermediate stock of each antibody was prepared. Antibodies were serially diluted 1-to-3 in FACS buffer. A total of 11 working dilutions ranging from 60 μg/mL to 0.001 μg/mL were prepared. Fifty microlitres of each dilution were then transferred to the microplate containing human CD96-CHO cells. The cells were then incubated for 45 minutes at 4° C. […] After a 30-minute incubation on ice, the cells were washed twice with cold FACS Buffer, and the cells were analyzed by flow cytometry (BD LSR Fortessa Flow Cytometer). The data were analyzed using the FlowJo software by sequentially gating the FSC-A vs. SSC-A, and SSC-H vs. SSC-A. Mean fluorescence intensity (MFI) values for PE were calculated, and the data were plotted by GraphPad Prism software.

[4] = target: T4, wild type full-length human CD96 isoform 2 expressed on CHO cells (human, UniProt P40200-2 22-569); experiment: flow cytometry on CHO cells expressing human CD96 isoform 2, PE anti-human IgG Fc detection
T4 construct: whole, on cells; also called human CD96-CHO (isoform 2); human CD96 (iso2) CHO cells
T4 sequence (looked up): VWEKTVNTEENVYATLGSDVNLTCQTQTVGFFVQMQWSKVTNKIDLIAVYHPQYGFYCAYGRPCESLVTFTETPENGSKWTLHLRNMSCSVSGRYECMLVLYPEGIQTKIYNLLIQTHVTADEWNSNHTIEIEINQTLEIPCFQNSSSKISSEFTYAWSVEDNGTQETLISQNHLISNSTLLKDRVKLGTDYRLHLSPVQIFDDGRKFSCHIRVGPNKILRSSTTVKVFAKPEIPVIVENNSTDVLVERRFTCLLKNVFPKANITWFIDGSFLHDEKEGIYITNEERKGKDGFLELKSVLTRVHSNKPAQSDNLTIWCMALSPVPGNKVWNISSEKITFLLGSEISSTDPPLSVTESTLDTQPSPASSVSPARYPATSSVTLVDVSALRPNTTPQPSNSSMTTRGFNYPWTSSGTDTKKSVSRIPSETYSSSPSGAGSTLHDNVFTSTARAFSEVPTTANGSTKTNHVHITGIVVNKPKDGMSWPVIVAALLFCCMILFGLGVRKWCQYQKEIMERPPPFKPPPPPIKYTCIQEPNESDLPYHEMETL
Experimental: as §3

Kd [1]: 4.27 nM | koff [1]: 0.00135 s⁻¹ | kon [1]: 315000 M⁻¹ s⁻¹ | Kd [2]: 85 nM | koff [2]: 0.00083 s⁻¹ | kon [2]: 9760 M⁻¹ s⁻¹ | EC50 [3]: 0.0113 µg/mL | EC50 (read off the curve) [4]: ~0.2 µg/mL
B1: anti-TIGIT×CD96 multispecific molecule BA123 (bispecific antibody, human IgG1, kappa, lambda)
heavy 1: QVQLVQSGAEVKKPGASVKVSCKASGYTFTSYGISWVRQAPGQGLEWMGWISAYNANTNYAQKLQGRVTMTTDTSTSTAYMELRSLRSDDTAVYYCARSAGVLGGMDVWGRGTLVTVSSASTKGPSVFPLAPSSKSTSGGTAALGCLVKDYFPEPVTVSWNSGALTSGVHTFPAVLQSSGLYSLSSVVTVPSSSLGTQTYICNVNHKPSNTKVDKRVEPKSCDKTHTCPPCPAPELLGGPDVFLFPPKPKDTLMISRTPEVTCVVVDVSHEDPEVKFNWYVDGVEVHNAKTKPREEQYNSTYRVVSVLTVLHQDWLNGKEYKCKVSNKALPAPIEKTISKAKGQPREPQVYTLPPSREEMTKNQVSLSCAVKGFYPSDIAVEWESNGQPENNYKTTPPVLDSDGSFFLVSKLTVDKSRWQQGNVFSCSVMHEALHNHYTQKSLSLSPG
light 1: not shown
heavy 2: EVQLVQSGAEVKKPGSSVKVSCKASGYTFASYGISWVRQAPGQGLEWMGGITPFFNRVDVAEKFQGRVTITADKSTSTAYIELSSLRSEDTAVYYCARDLRRGGVGDAFDIWGRGTLVTVSSASTKGPSVFPLAPSSKSTSGGTAALGCLVKDYFPEPVTVSWNSGALTSGVHTFPAVLQSSGLYSLSSVVTVPSSSLGTQTYICNVNHKPSNTKVDKRVEPKSCDKTHTCPPCPAPELLGGPDVFLFPPKPKDTLMISRTPEVTCVVVDVSHEDPEVKFNWYVDGVEVHNAKTKPREEQYNSTYRVVSVLTVLHQDWLNGKEYKCKVSNKALPLPEEKTISKAKGQPREPQVYTLPPSREEMTKNQVSLWCLVKGFYPSDIAVEWESNGQPENNYKTTPPVLDSDGSFFLYSKLTVDKSRWQQGNVFSCSVMHEALHNHYTQKSLSLSPG
light 2: QSALTQPRSVSGSPGQSVTISCTGTSPDVGSHAYRSWYQQHPGKAPKLMIYEVSYRPSGVSNRFSGSKSGNTASLTISGLQAEDEADYYCSSYPPSSATVFGAGTKLTVLGQPKAAPSVTLFPPSSEELQANKATLVCLISDFYPGAVTVAWKADSSPVKAGVETTTPSKQSNNKYAASSYLSLTPEQWKSHRSYSCQVTHEGSTVEKTVAPTEC
notes: copies: 1 + 1 + 1 + 1

Kd [1]: 3.7 nM | koff [1]: 0.00129 s⁻¹ | kon [1]: 348000 M⁻¹ s⁻¹ | Kd [2]: 19.7 nM | koff [2]: 0.000796 s⁻¹ | kon [2]: 40500 M⁻¹ s⁻¹ | EC50 [3]: 0.0489 µg/mL | EC50 (read off the curve) [4]: ~0.03 µg/mL
B2: anti-TIGIT×CD96 multispecific molecule BA127 (bispecific antibody, human IgG1, kappa, lambda)
heavy 1: QVQLVQSGAEVKKPGASVKVSCKASGYTFTTYALHWVRQAPGQRLEWMGWINTGSGDTKYSQKFQGRVTITRDTSASTAYMELSSLRSEDTAVYYCARSLGVYYGMDVWGQGTLVTVSSASTKGPSVFPLAPSSKSTSGGTAALGCLVKDYFPEPVTVSWNSGALTSGVHTFPAVLQSSGLYSLSSVVTVPSSSLGTQTYICNVNHKPSNTKVDKRVEPKSCDKTHTCPPCPAPELLGGPDVFLFPPKPKDTLMISRTPEVTCVVVDVSHEDPEVKFNWYVDGVEVHNAKTKPREEQYNSTYRVVSVLTVLHQDWLNGKEYKCKVSNKALPAPIEKTISKAKGQPREPQVYTLPPSREEMTKNQVSLSCAVKGFYPSDIAVEWESNGQPENNYKTTPPVLDSDGSFFLVSKLTVDKSRWQQGNVFSCSVMHEALHNHYTQKSLSLSPG
light 1: not shown
heavy 2: B1 heavy 2
light 2: B1 light 2
notes: Anti-CD96 arm = BA139, anti-TIGIT arm = BA150; copies: 1 + 1 + 1 + 1
